From US20170010270A1 (Chugai, published 2017)

Legend:
[1] = molecular target: T1, AW2, C-terminally His-tagged recombinant product of positions 1 to 196 of GPC3 (human, UniProt P51654 25-196); assay: Western blot of CHO cell pellets, reducing
T1 construct: Expressed in CHO cells; cell pellets used in reducing Western blot; Construct is stated from position 1; also called AW2 (1-196); not shown: C-terminal His tag

[2] = molecular target: T2, AW3, C-terminally His-tagged recombinant product of positions 1 to 218 of GPC3 (human, UniProt P51654 25-218); assay: Western blot of CHO cell pellets, reducing
T2 construct: Expressed in CHO cells; cell pellets used in reducing Western blot; Construct is stated from position 1; not shown: C-terminal His tag
T2 sequence (P51654 25-218): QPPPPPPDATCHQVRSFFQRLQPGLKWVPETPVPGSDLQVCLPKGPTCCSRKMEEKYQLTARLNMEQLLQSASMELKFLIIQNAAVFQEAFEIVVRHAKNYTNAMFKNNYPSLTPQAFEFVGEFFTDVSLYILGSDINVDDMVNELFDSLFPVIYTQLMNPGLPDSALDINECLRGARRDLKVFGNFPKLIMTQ

[3] = molecular target: T3, GPC3 peptide, amino acid position 321-350 (SEQ ID NO: 17) (human); assay: ELISA on immobilised peptide, antibody at 2 µg/mL
T3 construct: synthetic 30-residue peptide of GPC3
T3 peptide: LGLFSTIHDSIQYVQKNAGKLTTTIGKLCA
Description: In order to identify more detailed epitopes for the antibodies, the amino acid sequence of GPC3 was divided into peptides of 30 residues containing 10-residue overlaps, and the corresponding peptides were synthesized (SEQ ID NOs: 1 to 29 in Table 2). Each peptide thus synthesized was dissolved at a concentration of 1 mg/mL in dimethyl sulfoxide and then diluted to 1 μg/mL with PBS. The diluted peptide solution was added at 70 μL/well to a 96-well plate and immobilized thereon at room temperature for 1 hour. After removal of unimmobilized peptides, 20% Blocking-one (Nacalai Tesque, Inc.) was added thereto as a blocking buffer solution at 200 μL/well, and the plate was blocked overnight. After removal of the blocking buffer solution, each well was washed with TBS-T three times, and each antibody diluted to 2 μg/mL with a blocking buffer was then added thereto at 70 μL/well. One hour later, the antibody was removed, and each well was washed three times by the addition of TBS-T at 200 μL/well. An HRP-bound anti-mouse antibody was added at 70 μL/well to each well and reacted therewith for 1 hour. […] The reaction was terminated by the addition of 1% SDS at 70 μL/well, and the absorbance at 405 nm was measured using a plate reader.

T1 sequence (P51654 25-196): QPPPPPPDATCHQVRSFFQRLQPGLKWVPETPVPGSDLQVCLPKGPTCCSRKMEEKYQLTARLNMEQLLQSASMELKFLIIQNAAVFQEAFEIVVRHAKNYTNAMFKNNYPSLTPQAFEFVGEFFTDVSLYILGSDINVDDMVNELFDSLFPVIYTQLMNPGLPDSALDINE

B1: GT30 antibody (antibody, V domains shown)
VH: QVQLQQSGAELARPGASVKLSCRASGYTFTSYGISWMMQRTGQGLEWIGEIYPRSGITYYNEKFKGKATLTADKSSSTAYMQLSSLTSEDSAVYFCARDVSDGYLFPYWGQGTLVTVSA
VL: DIQMTQSPASLSASVGETVTITCRTSENIYSYLAWYQQKQGKSPQLLVYNAKTLPEGVPSRFSGSGSGTQFSLKINSLQPEDFGSYYCQHHYGTPPTFGGGTKLEIKR
binding result [1]: no binding | binding result [2]: no binding | binding result [3]: binds
